# In patent publication US20220001000A1 (Regeneron, published 2022):
# Experiments:
# [1] = target: T1, HLA-A2/HPV16E7:11-19 on peptide-pulsed T2 cells (human; human papillomavirus type 16); experiment: MSD cell binding, T2
# Description: To determine anti-HLA-A2/HPV16E7 monoclonal antibody specificity, peptide-pulsed T2 cells loaded with target or off-target peptides (identified in the previous Example) were used. […] Approximately 6 million T2 cells per T-75 flask were cultured for 24 hours at 26° C. in 9 mL of AIM V® Medium containing 10 μg of human b2m and 100 μg of HPV16E7 peptide or off-target peptide (Tables 6 and 7). Peptide-loaded T2 cells were washed once with PBS without Ca2+/Mg2+ and counted. Approximately 10,000 cells per well of the peptide-loaded T2 or untreated T2 in cell washing buffer were seeded into the 96-well carbon electrode plates (MULTI-ARRAY high bind plate, MSD) and incubated for 1 hour at 37° C. to allow cells to adhere to the plate. Nonspecific binding sites were blocked using 2% BSA (w/v) in PBS for 1 hour at room temperature. […] Plates were incubated for 1 hour at room temperature, then washed to remove the unbound antibody using an AquaMax2000 plate washer (MDS Analytical Technologies). Plate-bound antibodies were detected with SULFO-TAG™-conjugated goat polyclonal anti-human IgG antibody specific for the Fc gamma fragment (Jackson Immunoresearch, Meso Scale Discovery) for 1 hour at room temperature. After washes, the plates were developed with the Read Buffer (MSD) according to manufacturer's recommended procedure, and the luminescent signals were recorded with a SECTOR Imager 600 (Meso Scale Discovery) instrument. The luminescence intensity, measured in relative light units (RLU), was recorded to indicate the binding intensity of each antibody at the range of concentrations.
# [2] = target: monomeric HLA-A2:HPV16E7(11-19) peptide complex, soluble (human; human papillomavirus type 16); experiment: SPR 25C, mAb captured
# [3] = target: T1, HLA-A2/HPV16E7:11-19 on peptide-pulsed …; experiment: FACS, T2, 10 ug/ml;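 also: Peptide-pulsed T2 cells held overnight at 26 °C, then stained with antibodies at 10 µg/ml, WI values reported as fold change versus unstained cells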
# Description: (§1) T2 cells were then incubated overnight at 26° C., washed in staining buffer and stained with the indicated antibodies at a concentration of 10 μg/ml following the protocol described above. WI values were calculated and presented as fold change over unstained cells.
# [4] = target: T2, HLA-A2 with off-target peptide SH3GLB1:244-252 on pulsed T2 cells (human); experiment: FACS, T2, 10 ug/ml;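 also: Peptide-pulsed T2 cells held overnight at 26 °C, then stained with antibodies at 10 µg/ml, WI values reported as fold change versus unstained cells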
# T2 construct: also called Endophilin-B1
# Description: as §1
# [5] = target: HLA-A2 with off-target peptide CAMKK1:388-396 on pulsed T2 cells (human); experiment: FACS, T2, 10 ug/ml;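 also: Peptide-pulsed T2 cells held overnight at 26 °C, then stained with antibodies at 10 µg/ml, WI values reported as fold change versus unstained cells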
# Description: as §1
# [6] = target: HLA-A2 with off-target peptide USP47:691-699 on pulsed T2 cells (human); experiment: FACS, T2, 10 ug/ml;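 also: Peptide-pulsed T2 cells held overnight at 26 °C, then stained with antibodies at 10 µg/ml, WI values reported as fold change versus unstained cells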
# Description: as §1
# [7] = target: T3, HLA-A2 with off-target peptide CHPF:463:471 on pulsed T2 cells (human); experiment: FACS, T2, 10 ug/ml
# T3 construct: also called Chondroitin sulfate synthase 2
# Description: as §1
# [8] = target: HLA-A2 with off-target peptide PKD1:2694-2702 on pulsed T2 cells (human); experiment: FACS, T2, 10 ug/ml
# Description: as §1
# [9] = target: HLA-A2 with off-target peptide NBR1:357-365 on pulsed T2 cells (human); experiment: FACS, T2, 10 ug/ml
# Description: as §1
# [10] = target: T4, HLA-A2 with off-target peptide CBL:83-91 on pulsed T2 cells (human); experiment: FACS, T2, 10 ug/ml
# T4 construct: also called E3 ubiquitin-protein ligase CBL
# Description: as §1
# [11] = target: HLA-A2 with off-target peptide PPP4R4:20-28 on pulsed T2 cells (human); experiment: FACS, T2, 10 ug/ml
# Description: as §1
# [12] = target: HLA-A2 with off-target peptide SBK3:285-293 on pulsed T2 cells (human); experiment: FACS, T2, 10 ug/ml
# Description: as §1
# [13] = target: HLA-A2 with HPV16E7:11-19 alanine scanning peptide […] (L13A) on pulsed T2 cells (human; human papillomavirus type 16); experiment: FACS, T2, Ala scan
# Description: (§2) Alanine scanning was performed to determine which residues in the HPV16E7:11-19 peptide were critical for antibody binding. T2 cells were pulsed with alanine scanning peptides and stained with HPV16E7:11-19 antibodies as described above.
# [14] = target: HLA-A2 with HPV16E7:11-19 alanine scanning peptide […] (L15A) on pulsed T2 cells (human; human papillomavirus type 16); experiment: FACS, T2, Ala scan
# Description: as §2
Binder,EC50 [1] [nM],Kd [2] [nM],koff [2] [s⁻¹],kon [2] [M⁻¹ s⁻¹],t½ [2] [min],Fold change over unstained [3] [fold],Fold change over unstained [4] [fold],Fold change over unstained [5] [fold],Fold change over unstained [6] [fold],Fold change over unstained [7] [fold],Fold change over unstained [8] [fold],Fold change over unstained [9] [fold],Fold change over unstained [10] [fold],Fold change over unstained [11] [fold],Fold change over unstained [12] [fold],FACS binding (fold over unstained) [13] [fold],FACS binding (fold over unstained) [14] [fold]
"H4sH21080P (antibody, V domains shown) VH: EVQLVESGGGLVQPGGSLRLSCAASGFTFSSYAMSWVRQAPGKGLEWVSGISGSGGTTYDADSVKGRFTISRDNSKNTLYLQMHSLRAEDTAAYYCAKDWNYGPYYYFGMDVWGQGTTVTVSS VL: not shown",0.22,218,0.039,179000,0.3,–,–,–,–,–,–,–,–,–,–,–,–
"H4sH21064P (antibody, V domains shown) VH: EVQLVESGGGLVQPGGSLRLSCAASGFTFTFYAMHWVRQAPGKGLEYVSGISSNGGSTKYADSVKGRFTISRDNSKNTLYLQMGSLRAEDLAVYYCARSYASSSDYHYYYGMDVWGQGTTVTVSS VL: not shown",–,14.4,–,–,14.6,–,–,–,–,–,–,–,–,–,–,–,–
"H4sH17670P (antibody, V domains shown) VH: EVQLVESGGDLVQPGTSLRLSCEASGFTLSFYAMYWVRQAPGKELELVSGISGNGESMFYGNSVKGRFSISRDNSKNTLYLQMGSVRAEDMAVYYCARAYASGNSYFFYYGMDVWGQGTTVTVSS VL: not shown",1.3,17.5,–,–,–,–,–,–,–,–,–,–,–,–,–,–,–
"H4sH17675P (antibody, V domains shown) VH: EVQLVESGGGLVQPGASLRLSCEASGFTLSFYAMHWVRQAPGKELEYVSGISGNGNSIYYRDSVKGRFTISRDNSKNTLYLQMGSVGAEDMAVYYCARSYSSGNSYYYYYGMDVWGQGTTVTVSS VL: DIQMTQSPSSLSASVGDRITITCRASQSISSYLNWYQQKPGKAPNLLIYAASNLQSGVPSRFSGSGSGTDFTLTISSLQPEDFATYYCQQSYSTPPITFGQGTRLEIKR",1.1,23.1,0.00138,59900,8.4,1200,10.5,2.4,13.3,5,2.9,2.2,4.9,5.5,2.9,527,1150
"H4sH17364N (antibody, V domains shown) VH: EVQLLESGGGLVQPGGSLRLSCAASGFTFSSYAMTWVRQAPGKGLEWVSVISGSGSETYYADSVKGRFTISRDNSKNTLYLQMNSLRAEDTAVYYCVKDSSYRSSSRAYYYYGMDVWGLGTTVTVSS VL: DIQMTQSPSSLSASVGDRVTITCRASQSISSYLNWYQQKPGKAPKLLIYAVSILQSGVPSRFSGSGSGTDFTLTISSLQPEDFATYSCQQTYSTPPITFGQGTRLEIKR",2,18.3,0.00157,85600,7.4,986,15.2,1,1.3,10.9,1,3,23.9,9,0.8,490,1010
"H4sH17672P (antibody, V domains shown) VH: EVQLVESGGGLVQPGASLRLSCEASGFTLSFYSMHWVRQAPGRELEYVSGISGNGNNIYYRDSVKGRFTISRDNSKNTLNLQMGSVRAEDMGVYYCARSYSSGNSYNYYYGMDVWGQGTTVTVSS VL: DIQMTQSPSSLSASVGDRVTITCRASQTISSYLNWYQQKPGKAPKLLIYAVSNLQSGVPSRFSGSGSGTDFTLTISSLQPEDFATYYCQQSYSTPPITFGQGTRLEIK",0.45,6.37,0.000819,129000,14.1,–,–,–,–,–,–,–,–,–,–,–,–
"H4sH17363N (antibody, V domains shown) VH: EVQLLESGGGLVQPGGSLRLSCAASGFTFSSYAMTWVRQAPGMGLEWVSVISGSGSETYYADSVKGRFTISRDNSKNTLYLQMNSLRAEDTAVYYCVKDSSYRSSSRAYYYYGMDVWGLGTTVTVSS VL: DIQMTQSPSSLSASVGDRVTITCRASQSISSYLNWYQQKPGKAPKLLIYAVSILQSGVPSRFSGSGSGTDFTLTINSLQPEDFATYSCQQTYSTPPITFGQGTRLEIKR",2.1,17.6,0.00154,87200,7.5,1000,13.6,2,0.6,7.4,1.2,3.6,19.5,6.1,0.4,530,1020
"H4sH21079P (antibody, V domains shown) VH: EVQLVESGGGLVKPGGSLRLSCAASGFTFSNAWMSWVRQAPGKGLEWVGRIKTRADGGTTDYAAPVKGRFTISRDDSKNTLYLQLNSLKTEDTAVYYCTSHNWNYEDFDYWGQGTLVTVSS VL: DIQMTQSPSSLSASVGDRVTITCRASQSISNYLNWYQQKPGKAPKLLIYAASSLQSGVPSRFSGSGSGTDFTLTISSLQPEEFATYYCQQSYSIPYTFGQGTKLEIK",1.1,290,0.0109,37400,1.1,–,–,–,–,–,–,–,–,–,–,–,–
"H4sH17930N (antibody, V domains shown) VH: EVQLVESGGGLVQPGGSLRLSCAASGFTFSYYALHWVRQAPGKGLEYVSAISGNGGSTYYADSVKGRFTISRDKSMSTVYLQVGSLRAEDMAVYYCARSYASSSDYHYYYGMDVWGQGTTVTVSS VL: not shown",3.1,10.2,–,–,14.5,–,–,–,–,–,–,–,–,–,–,–,–
"H4sH17930N2 (antibody, V domains shown) VH: EVQLVESGGGLVQPGGSLRLSCAASGFTFSYYALHWVRQAPGKGLEYVSAISGNGGSTYYADSVKGRFTISRDKSMSTVYLQVGSLRAEDMAVYYCARSYASSSDYHYYYGMDVWGQGTTVTVSS VL: not shown",–,9.57,–,–,14.6,–,–,–,–,–,–,–,–,–,–,–,–
